Details in all cases: both partners purified
For experiment [1], the target named is T1, GST-hHR23A, residues 1–363 (WT hHR23AFL) (human, UniProt P54725 1-363).
T1 construct: human hHR23A, full length, residues 1–363; also called GST-tagged WT hHR23A; source: recombinant
T1 sequence (looked up): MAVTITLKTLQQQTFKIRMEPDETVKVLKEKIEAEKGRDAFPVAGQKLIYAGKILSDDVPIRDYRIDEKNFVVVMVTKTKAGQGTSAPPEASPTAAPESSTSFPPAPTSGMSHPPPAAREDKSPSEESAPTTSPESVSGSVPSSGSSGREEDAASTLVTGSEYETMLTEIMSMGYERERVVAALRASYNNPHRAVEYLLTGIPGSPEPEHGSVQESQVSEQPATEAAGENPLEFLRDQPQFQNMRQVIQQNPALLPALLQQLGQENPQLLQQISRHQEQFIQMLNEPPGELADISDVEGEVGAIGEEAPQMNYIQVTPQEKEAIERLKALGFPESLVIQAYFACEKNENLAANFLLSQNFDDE
Briefly: pull-down; 1000 pmol GST-tagged hHR23A/B and 1000 pmol NusA–VprFL in 500 μl PBS, 30 min 4 °C; TEV cleavage overnight at 4 °C; Glutathion-Sepharose 4B beads; anti-His immunoblot. A general note: In western blotting, separated proteins are transferred to a membrane and probed.

Experiment [2] deals with T2, GST-hHR23B, residues 262–409 (human, UniProt P54727 262-409).
T2 construct: human hHR23B, residues 262–409; also called C-terminal half of hHR23B; source: recombinant
T2 sequence (looked up): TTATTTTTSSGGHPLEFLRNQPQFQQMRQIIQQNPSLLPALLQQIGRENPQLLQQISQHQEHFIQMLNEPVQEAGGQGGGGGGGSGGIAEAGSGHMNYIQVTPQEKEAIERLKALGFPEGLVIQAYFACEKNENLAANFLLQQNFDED
Described as above.

Experiment [3] has as its target T3, GST-hHR23B, residues 1–409 (human, UniProt P54727 1-409).
T3 construct: human hHR23B, residues 1–409; source: recombinant
T3 sequence (looked up): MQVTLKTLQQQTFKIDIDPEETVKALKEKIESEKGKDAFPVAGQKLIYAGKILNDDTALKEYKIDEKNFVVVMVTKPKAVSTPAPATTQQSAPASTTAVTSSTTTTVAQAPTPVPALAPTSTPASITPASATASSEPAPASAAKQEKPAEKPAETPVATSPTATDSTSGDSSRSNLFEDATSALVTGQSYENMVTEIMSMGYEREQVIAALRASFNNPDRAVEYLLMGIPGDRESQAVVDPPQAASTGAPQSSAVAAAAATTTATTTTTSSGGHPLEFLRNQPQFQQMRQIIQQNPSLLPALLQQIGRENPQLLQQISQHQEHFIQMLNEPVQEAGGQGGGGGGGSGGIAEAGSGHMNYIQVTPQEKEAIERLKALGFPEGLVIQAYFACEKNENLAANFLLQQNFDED
The description is as above.

The target in the next experiment is T4, Trx-hHR23AFL (human, UniProt P54725 1-363).
T4 construct: human hHR23A, full length (FL); source: E. coli Rosetta 2 (DE3) or Rosetta 2 (DE3) pLysS, purified (HisTrap, gel filtration)
T4 sequence (looked up): T1 sequence (looked up)
Briefly: ITC; NusA–Vpr1–79 (8.5 µM) in the cell, Trx-hHR23AFL or DCAF1 1045–1396/DDB1 (100 μM) added in aliquots; 18 °C; 20 mM sodium phosphate pH 7.4, 100 mM NaCl. On the technique in general: Isothermal titration calorimetry measures the heat released or taken up as one component is titrated into another.

The target of another experiment is T5, DCAF1_(1045–1396)/DDB1 (UniProt Q9Y4B6 1045-1396; Q16531 1-1140).
T5 construct: DCAF1, residues 1045-1396; DDB1
The experiment is described as above.

Numbering of substitutions follows the chain as printed. Names and notes keep the numbering of the source.

What is called Kd is the equilibrium constant for the complex coming apart. Read a high Kd as a looser complex.

T5 sequence (Q9Y4B6 1045-1396, chain 1 of 2): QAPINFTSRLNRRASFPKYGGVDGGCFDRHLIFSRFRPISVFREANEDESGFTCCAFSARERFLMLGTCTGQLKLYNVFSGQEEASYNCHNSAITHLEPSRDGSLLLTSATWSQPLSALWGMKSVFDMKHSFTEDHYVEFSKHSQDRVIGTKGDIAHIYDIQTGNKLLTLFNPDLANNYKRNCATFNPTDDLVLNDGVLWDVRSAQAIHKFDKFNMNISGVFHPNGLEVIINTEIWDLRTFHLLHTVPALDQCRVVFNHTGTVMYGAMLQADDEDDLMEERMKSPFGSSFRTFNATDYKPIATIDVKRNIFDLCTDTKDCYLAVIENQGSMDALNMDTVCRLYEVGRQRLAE
T5 sequence (Q16531 whole entry, chain 2 of 2, the tested form may be a part): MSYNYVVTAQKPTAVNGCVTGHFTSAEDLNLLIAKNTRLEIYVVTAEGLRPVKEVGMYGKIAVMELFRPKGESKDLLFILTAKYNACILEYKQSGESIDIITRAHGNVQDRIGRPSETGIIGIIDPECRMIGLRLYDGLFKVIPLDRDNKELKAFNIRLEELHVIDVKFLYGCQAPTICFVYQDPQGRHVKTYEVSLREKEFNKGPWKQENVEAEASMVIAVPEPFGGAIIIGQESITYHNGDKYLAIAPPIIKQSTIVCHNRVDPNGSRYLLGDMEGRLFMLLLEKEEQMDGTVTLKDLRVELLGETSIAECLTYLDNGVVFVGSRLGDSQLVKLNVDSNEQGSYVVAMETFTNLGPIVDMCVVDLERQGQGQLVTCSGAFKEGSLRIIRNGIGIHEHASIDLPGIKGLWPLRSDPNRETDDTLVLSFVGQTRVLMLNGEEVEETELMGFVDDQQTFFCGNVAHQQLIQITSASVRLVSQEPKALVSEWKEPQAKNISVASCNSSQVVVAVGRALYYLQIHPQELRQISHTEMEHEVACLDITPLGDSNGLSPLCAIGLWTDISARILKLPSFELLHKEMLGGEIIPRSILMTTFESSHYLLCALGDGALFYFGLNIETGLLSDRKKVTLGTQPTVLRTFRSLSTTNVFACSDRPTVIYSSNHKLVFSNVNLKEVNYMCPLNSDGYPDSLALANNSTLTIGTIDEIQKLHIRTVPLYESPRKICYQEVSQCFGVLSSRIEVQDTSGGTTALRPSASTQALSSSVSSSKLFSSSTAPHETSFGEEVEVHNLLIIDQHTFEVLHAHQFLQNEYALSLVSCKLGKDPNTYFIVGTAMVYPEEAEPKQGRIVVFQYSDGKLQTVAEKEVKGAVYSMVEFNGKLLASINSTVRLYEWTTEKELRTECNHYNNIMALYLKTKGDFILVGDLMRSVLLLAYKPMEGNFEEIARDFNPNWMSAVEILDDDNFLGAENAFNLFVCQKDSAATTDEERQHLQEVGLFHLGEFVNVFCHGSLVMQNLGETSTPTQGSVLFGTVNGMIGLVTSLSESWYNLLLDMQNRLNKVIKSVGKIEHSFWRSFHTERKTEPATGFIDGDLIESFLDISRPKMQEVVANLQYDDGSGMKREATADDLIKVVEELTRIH

B1: recombinant VprFL (from NusA–VprFL) (natural protein)
chain: MEQAPEDQGPQREPYNEWTLELLEELKSEAVRHFPRIWLHNLGQHIYETYGDTWAGVEAIIRILQQLLFIHFRIGCRHSRIGVTRQRRARNGASRS
notes: HIV-1 Vpr, full length (FL); also called VprFL WT; source: recombinant NusA–VprFL
As for B1, the binding result in experiment [1], in experiment [2] and in experiment [3] was “binds” in each case.

B2: recombinant VprFL Y50S (natural protein)
chain: B1 chain with Y50S
notes: HIV-1 Vpr, full length, with Y50S; source: recombinant NusA–VprFL
Take B2: in experiment [1], the binding result was “binds”.

B3: recombinant VprFL R73A (natural protein)
chain: B1 chain with R73A
notes: HIV-1 Vpr, full length, with R73A; source: recombinant NusA–VprFL
For B3, in experiment [1], the binding result is reported as “binds”.

B4: recombinant VprFL H45A (natural protein)
chain: B1 chain with H45A
notes: HIV-1 Vpr, full length, with H45A; source: recombinant NusA–VprFL
In the case of B4, in experiment [1], the binding result is reported as “binds”.

B5: recombinant VprFL L67A/I70A (natural protein)
chain: B1 chain with L67A, I70A
notes: HIV-1 Vpr, full length, with L67A and I70A; also called L67A/I70A double mutant; source: recombinant NusA–VprFL
Regarding B5, the binding result in experiment [1] was “binds”.

B6: NusA–Vpr_(1–79) (domain or fragment)
chain: MEQAPEDQGPQREPYNEWTLELLEELKSEAVRHFPRIWLHNLGQHIYETYGDTWAGVEAIIRILQQLLFIHFRIGCRHS
notes: HIV-1 Vpr, residues 1-79; source: E. coli Rosetta 2 (DE3) or Rosetta 2 (DE3) pLysS, purified (HisTrap, gel filtration)
In the case of B6, the Kd worked out at 640 ± 408 nM with Trx-hHR23AFL and 116 ± 47 nM with DCAF1_(1045–1396)/DDB1.

The values are drawn from paper PMC8617076, “Structure of HIV-1 Vpr in complex with the human nucleotide excision repair protein hHR23A” (Nature Communications, 2021).
